From IntAct's records for PubMed 23164639 come the findings set out here.

B1: Peroxiredoxin-6 (Mus musculus), O08709 (parent)
chain: MPGGLLLGDEAPNFEANTTIGRIRFHDFLGDSWGILFSHPRDFTPVCTTELGRAAKLAPEFAKRNVKLIALSIDSVEDHLAWSKDINAYNGETPTEKLPFPIIDDKGRDLAILLGMLDPVEKDDNNMPVTARVVFIFGPDKKLKLSILYPATTGRNFDEILRVVDSLQLTGTKPVATPVDWKKGESVMVVPTLSEEEAKQCFPKGVFTKELPSGKKYLRYTPQP

Variants of B1 are the subject of the assay. To be noted: with gstp1_mouse Gstp1, P19157.
Sequence of gstp1_mouse Gstp1, P19157 (P19157 whole entry): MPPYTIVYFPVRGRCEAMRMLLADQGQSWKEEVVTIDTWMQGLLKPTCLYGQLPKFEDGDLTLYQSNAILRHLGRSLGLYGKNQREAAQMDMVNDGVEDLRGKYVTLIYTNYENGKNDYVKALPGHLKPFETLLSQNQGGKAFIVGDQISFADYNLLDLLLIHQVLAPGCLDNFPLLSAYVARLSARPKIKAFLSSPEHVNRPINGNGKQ
Take C47S: the “effect of a mutation on the interaction” value was “disrupting interaction”.
